Measured values from paper PMC11632364, “Interactions that define the arrangement of sugar-binding sites in BDCA-2 and dectin-2 dimers” (Glycobiology, 2024).

Tests used:
[1] = biological target: BDCA-2 Ser49Cys variant extracellular domain fused to an N-terminal 3-heptad coiled-coil dimerization domain (human) (UniProt Q8WTT0); experiment: SEC; 1 x 30 cm Superdex S75, 10 mM Tris-Cl pH 7.8, 100 mM NaCl, 2.5 mM EDTA, 0.5 mL/min, room temperature; some fragments analysed at serial dilutions
[2] = biological target: BDCA-2 Ser49Cys variant extracellular domain fused to an N-terminal 3-heptad coiled-coil dimerization domain (human) (UniProt Q8WTT0); experiment: non-reducing versus reducing SDS-PAGE (disulfide-linked dimer); bacterially expressed extracellular domain fusions eluted from a 5-mL desialylated egg glycopeptide column with EDTA, gels with or without 2-mercaptoethanol, Coomassie blue
[3] = biological target: dectin-2 extracellular fragment beginning with His44 fused to an N-terminal 3-heptad coiled-coil dimerization domain (human) (UniProt Q6EIG7); experiment: SEC; 1 x 30 cm Superdex S75, 10 mM Tris-Cl pH 7.8, 100 mM NaCl, 2.5 mM EDTA, 0.5 mL/min, room temperature; some fragments analysed at serial dilutions
[4] = biological target: dectin-2 extracellular fragment beginning with His44 fused to an N-terminal 3-heptad coiled-coil dimerization domain (human) (UniProt Q6EIG7); experiment: cross-linking; dectin-2 extracellular domain with dimerization domain in HEPES pH 7.8 buffers, bis(sulfosuccinimidyl) suberate or disuccinimidyl tartrate, serial dilutions, room temperature 30 min, reducing 17.5% SDS-PAGE, Coomassie blue
[5] = biological target: wild type BDCA-2 extracellular domain (from His44) fused to an N-terminal 3-heptad coiled-coil dimerization domain (human) (UniProt Q8WTT0); experiment: SEC; 1 x 30 cm Superdex S75, 10 mM Tris-Cl pH 7.8, 100 mM NaCl, 2.5 mM EDTA, 0.5 mL/min, room temperature; some fragments analysed at serial dilutions
[6] = biological target: the molecule itself; experiment: cross-linking; BDCA-2 purified from HEK cells in HEPES pH 7.8 buffers, pooled fractions reacted with various concentrations of bifunctional reagent for 30 min, reducing SDS-PAGE, western blot
[7] = biological target: the molecule itself; experiment: non-reducing versus reducing SDS-PAGE (disulfide-linked dimer); BDCA-2 purified from HEK cells by affinity chromatography (lysis with N-ethylmaleimide), gels with or without 2-mercaptoethanol, western blot with anti-BDCA-2 antiserum
[8] = biological target: the molecule itself; experiment: SEC; 1 x 30 cm Superdex S75, 10 mM Tris-Cl pH 7.8, 100 mM NaCl, 2.5 mM EDTA, 0.5 mL/min, room temperature; some fragments analysed at serial dilutions

Molecule: BDCA-2 Ser49Cys variant extracellular domain fused to an N-terminal 3-heptad coiled-coil dimerization domain (from UniProt Q8WTT0 44-213)
- stoichiometry N [1]: 2
- stoichiometry N [2]: 2

Molecule: dectin-2 extracellular fragment beginning with His44 fused to an N-terminal 3-heptad coiled-coil dimerization domain (from UniProt Q6EIG7 44-209)
- stoichiometry N [3]: 2
- stoichiometry N [4]: 2

Molecule: wild type BDCA-2 extracellular domain (from His44) fused to an N-terminal 3-heptad coiled-coil dimerization domain (from UniProt Q8WTT0 44-213)
- stoichiometry N [5]: 2

B1: blood dendritic cell antigen 2 (BDCA-2), full-length, wild type (receptor, human, UniProt Q8WTT0 1-213, looked up)
chain: MVPEEEPQDREKGLWWFQLKVWSMAVVSILLLSVCFTVSSVVPHNFMYSKTVKRLSKLREYQQYHPSLTCVMEGKDIEDWSCCPTPWTSFQSSCYFISTGMQSWTKSQKNCSVMGADLVVINTREEQDFIIQNLKRNSSYFLGLSDPGGRRHWQWVDQTPYNENVTFWHSGEPNNLDERCAIINFRSSEEWGWNDIHCHVPQKSICKMKKIYI
modifications: N-linked glycans (high mannose and complex)
notes: human BDCA-2, full-length protein expressed in HEK cells; Co-expressed with human FcRγ; no tag is mentioned; also called wild-type BDCA-2; source: HEK 293 cells, stably co-transfected with FcRγ; in lysate and purified from lysate on a desialylated egg-glycopeptide column
- stoichiometry N [6]: 2

B2: BDCA-2 Ser49Cys variant, full-length (receptor, human, UniProt Q8WTT0 1-213, looked up)
chain: MVPEEEPQDREKGLWWFQLKVWSMAVVSILLLSVCFTVSSVVPHNFMYCKTVKRLSKLREYQQYHPSLTCVMEGKDIEDWSCCPTPWTSFQSSCYFISTGMQSWTKSQKNCSVMGADLVVINTREEQDFIIQNLKRNSSYFLGLSDPGGRRHWQWVDQTPYNENVTFWHSGEPNNLDERCAIINFRSSEEWGWNDIHCHVPQKSICKMKKIYI
modifications: interchain disulfide bond at Cys49; N-linked glycans (high mannose and complex)
notes: human BDCA-2, full-length construct with the naturally occurring change Ser49Cys (SNP found in a single individual); Co-expressed with human FcRγ; also called Ser49Cys form of BDCA-2; source: HEK 293 cells, stably co-transfected with FcRγ; in lysate and purified from lysate on a desialylated egg-glycopeptide column
- stoichiometry N [7]: 2

B3: dectin-2 extracellular domain starting at Val40 (CRD plus full neck) (domain or fragment, human, UniProt Q6EIG7 40-209, looked up)
chain: VVTYHFTYGETGKRLSELHSYHSSLTCFSEGTKVPAWGCCPASWKSFGSSCYFISSEEKVWSKSEQNCVEMGAHLVVFNTEAEQNFIVQQLNESFSYFLGLSDPQGNNNWQWIDKTPYEKNVRFWHLGEPNHSAEQCASIVFWKPTGWGWNDVICETRRNSICEMNKIYL
notes: human dectin-2 (CLEC-6A) extracellular region starting at Val40; also called full extracellular domain of dectin-2; CRD plus neck fragment starting at residue Val40; source: E. coli BL21(DE3), inclusion bodies, renatured, purified on mannose-Sepharose
- stoichiometry N [8]: 2
